Results: patent publication US20090149389A1 (PURDUE RESEARCH FOUNDATION, published 2009)

Columns and labels:
Experiment in all cases: cell-based or functional assay
PhKγ2 (h) = molecular target: T1, PhKγ2 (h) (human (h), UniProt P15735 1-406)
T1 sequence (looked up): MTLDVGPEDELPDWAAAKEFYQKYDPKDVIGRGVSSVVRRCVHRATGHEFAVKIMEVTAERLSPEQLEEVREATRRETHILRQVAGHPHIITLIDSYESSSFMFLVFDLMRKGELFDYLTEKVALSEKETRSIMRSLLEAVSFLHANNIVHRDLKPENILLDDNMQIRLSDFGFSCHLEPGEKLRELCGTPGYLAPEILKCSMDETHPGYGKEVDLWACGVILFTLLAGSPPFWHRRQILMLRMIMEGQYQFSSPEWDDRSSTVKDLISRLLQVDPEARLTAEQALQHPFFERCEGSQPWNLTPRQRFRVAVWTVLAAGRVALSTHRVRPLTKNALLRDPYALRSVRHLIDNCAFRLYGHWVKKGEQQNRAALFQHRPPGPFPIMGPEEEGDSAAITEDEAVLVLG

MSK2 (h) = MSK2 (h) (human (h), UniProt O75676 1-772, limits assumed)
MSK2 (h), sequence (O75676 whole entry): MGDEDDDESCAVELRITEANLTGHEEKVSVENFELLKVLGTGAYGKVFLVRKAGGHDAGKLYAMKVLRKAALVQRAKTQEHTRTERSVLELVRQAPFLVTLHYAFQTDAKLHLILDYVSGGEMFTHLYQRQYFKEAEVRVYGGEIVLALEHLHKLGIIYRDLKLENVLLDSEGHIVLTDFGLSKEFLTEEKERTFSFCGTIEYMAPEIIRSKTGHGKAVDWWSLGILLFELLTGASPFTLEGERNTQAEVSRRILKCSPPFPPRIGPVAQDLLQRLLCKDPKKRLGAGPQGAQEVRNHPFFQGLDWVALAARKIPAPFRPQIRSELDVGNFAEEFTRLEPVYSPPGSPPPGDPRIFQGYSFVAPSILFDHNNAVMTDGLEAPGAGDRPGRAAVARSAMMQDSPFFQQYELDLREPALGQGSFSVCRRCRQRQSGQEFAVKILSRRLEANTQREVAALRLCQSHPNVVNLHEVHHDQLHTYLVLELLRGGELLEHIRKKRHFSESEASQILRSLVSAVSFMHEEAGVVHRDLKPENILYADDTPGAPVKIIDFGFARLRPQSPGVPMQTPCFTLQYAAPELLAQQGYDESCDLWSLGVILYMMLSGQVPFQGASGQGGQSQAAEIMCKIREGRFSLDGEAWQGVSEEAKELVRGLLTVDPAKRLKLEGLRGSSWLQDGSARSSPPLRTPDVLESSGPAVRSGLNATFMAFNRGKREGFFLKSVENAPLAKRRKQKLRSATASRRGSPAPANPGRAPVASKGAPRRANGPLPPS

MEKI (h) = MEKI (h) (human (h), UniProt Q02750 1-393)
Rsk2 (h) = Rsk2 (h) (human (h), UniProt P51812 1-740)
Rsk2 (h), sequence (P51812 whole entry): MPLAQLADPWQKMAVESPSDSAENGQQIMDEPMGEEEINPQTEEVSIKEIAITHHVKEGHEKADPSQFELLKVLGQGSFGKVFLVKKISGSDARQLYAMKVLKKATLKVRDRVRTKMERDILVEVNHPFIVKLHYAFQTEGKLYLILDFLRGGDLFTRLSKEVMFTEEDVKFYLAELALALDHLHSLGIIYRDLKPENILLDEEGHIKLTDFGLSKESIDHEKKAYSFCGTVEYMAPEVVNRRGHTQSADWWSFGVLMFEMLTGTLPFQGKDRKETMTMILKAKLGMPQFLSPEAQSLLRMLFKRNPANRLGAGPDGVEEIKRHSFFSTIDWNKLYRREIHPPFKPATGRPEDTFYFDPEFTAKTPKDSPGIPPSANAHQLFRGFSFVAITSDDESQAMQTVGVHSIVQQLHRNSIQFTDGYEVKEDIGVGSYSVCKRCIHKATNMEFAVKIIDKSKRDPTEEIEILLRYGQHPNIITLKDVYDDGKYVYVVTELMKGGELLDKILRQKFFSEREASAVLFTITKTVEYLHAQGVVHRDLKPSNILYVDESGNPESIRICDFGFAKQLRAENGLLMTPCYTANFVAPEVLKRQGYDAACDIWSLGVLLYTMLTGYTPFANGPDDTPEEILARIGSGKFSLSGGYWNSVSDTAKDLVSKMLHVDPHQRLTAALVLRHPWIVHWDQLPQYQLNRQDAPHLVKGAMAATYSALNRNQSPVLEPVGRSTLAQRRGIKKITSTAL

EGFR (h) = EGFR (h) (human (h), UniProt P00533 696-1210, limits assumed)
MKK4 (m) = molecular target: T2, MKK4 (m) (mouse (m), UniProt P47809 35-397, limits assumed)
T2 sequence (looked up): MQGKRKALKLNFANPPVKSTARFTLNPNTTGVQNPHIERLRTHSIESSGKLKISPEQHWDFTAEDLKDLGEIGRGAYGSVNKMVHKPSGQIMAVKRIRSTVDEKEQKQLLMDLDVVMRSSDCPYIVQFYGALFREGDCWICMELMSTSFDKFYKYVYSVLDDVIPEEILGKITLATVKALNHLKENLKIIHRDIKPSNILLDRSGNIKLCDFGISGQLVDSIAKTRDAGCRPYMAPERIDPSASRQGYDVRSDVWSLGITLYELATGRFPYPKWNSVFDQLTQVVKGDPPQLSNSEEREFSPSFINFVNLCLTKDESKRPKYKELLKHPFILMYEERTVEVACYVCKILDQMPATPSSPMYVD

PRAK = molecular target: T3, PRAK (UniProt Q8IW41 1-473, limits assumed)
T3 sequence (looked up): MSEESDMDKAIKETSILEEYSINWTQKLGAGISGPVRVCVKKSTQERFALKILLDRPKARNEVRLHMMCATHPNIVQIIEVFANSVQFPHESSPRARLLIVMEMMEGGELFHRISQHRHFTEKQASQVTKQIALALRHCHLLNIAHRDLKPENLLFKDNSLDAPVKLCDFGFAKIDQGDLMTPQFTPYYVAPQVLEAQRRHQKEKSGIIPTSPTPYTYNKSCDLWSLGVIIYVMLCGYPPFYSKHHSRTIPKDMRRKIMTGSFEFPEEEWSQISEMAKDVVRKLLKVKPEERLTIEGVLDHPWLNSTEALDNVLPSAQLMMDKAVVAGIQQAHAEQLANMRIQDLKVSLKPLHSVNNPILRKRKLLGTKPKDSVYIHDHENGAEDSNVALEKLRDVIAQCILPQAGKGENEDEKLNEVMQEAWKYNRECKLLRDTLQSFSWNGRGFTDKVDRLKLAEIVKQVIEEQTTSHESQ

Ret (h) = molecular target: T4, Ret (h) (human (h), UniProt P07949 658-1114, limits assumed)
T4 sequence (looked up): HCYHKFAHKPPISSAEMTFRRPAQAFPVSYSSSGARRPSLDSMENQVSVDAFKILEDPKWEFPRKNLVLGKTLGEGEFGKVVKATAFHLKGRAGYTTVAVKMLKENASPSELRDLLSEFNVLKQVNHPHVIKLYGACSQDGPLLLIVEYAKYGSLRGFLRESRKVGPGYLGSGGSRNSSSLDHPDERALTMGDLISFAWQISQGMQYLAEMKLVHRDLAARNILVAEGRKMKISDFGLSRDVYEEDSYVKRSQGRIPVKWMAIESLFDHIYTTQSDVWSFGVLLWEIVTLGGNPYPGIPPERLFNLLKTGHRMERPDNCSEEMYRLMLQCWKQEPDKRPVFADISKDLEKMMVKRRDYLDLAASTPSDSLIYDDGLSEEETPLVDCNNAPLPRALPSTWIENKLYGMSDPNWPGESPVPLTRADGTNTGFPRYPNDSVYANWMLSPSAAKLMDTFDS

JNK1α1 (h) = JNK1α1 (h) (human (h), UniProt P45983-2 1-384)
JNK1α1 (h), sequence (P45983 other isoform, or with tags, fused parts or gaps limits assumed): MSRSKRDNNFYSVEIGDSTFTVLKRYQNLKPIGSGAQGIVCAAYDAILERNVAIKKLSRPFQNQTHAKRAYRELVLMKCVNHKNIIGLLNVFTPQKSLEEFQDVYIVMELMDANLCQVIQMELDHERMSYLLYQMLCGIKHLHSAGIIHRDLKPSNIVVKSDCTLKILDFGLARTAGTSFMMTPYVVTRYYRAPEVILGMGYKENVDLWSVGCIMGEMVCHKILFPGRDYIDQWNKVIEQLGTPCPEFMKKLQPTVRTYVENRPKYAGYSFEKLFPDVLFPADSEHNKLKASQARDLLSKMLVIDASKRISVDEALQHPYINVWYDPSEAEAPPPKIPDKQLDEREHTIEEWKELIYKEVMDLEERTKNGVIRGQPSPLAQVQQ

MKK6 (h) = molecular target: T5, MKK6 (h) (human (h), UniProt P52564 1-334, limits assumed)
T5 sequence (looked up): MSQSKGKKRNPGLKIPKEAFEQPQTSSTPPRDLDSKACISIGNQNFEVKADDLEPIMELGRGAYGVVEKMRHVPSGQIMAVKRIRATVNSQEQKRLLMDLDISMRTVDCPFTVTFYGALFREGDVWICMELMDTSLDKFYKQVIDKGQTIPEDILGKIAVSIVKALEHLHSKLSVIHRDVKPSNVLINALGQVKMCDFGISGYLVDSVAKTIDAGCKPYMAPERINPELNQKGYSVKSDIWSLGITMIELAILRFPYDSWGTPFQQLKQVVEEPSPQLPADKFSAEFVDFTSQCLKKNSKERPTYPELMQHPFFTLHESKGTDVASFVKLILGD

CaMKI (h) = CaMKI (h) (human (h), UniProt Q14012 1-370, limits assumed)
CaMKI (h), sequence (Q14012 whole entry): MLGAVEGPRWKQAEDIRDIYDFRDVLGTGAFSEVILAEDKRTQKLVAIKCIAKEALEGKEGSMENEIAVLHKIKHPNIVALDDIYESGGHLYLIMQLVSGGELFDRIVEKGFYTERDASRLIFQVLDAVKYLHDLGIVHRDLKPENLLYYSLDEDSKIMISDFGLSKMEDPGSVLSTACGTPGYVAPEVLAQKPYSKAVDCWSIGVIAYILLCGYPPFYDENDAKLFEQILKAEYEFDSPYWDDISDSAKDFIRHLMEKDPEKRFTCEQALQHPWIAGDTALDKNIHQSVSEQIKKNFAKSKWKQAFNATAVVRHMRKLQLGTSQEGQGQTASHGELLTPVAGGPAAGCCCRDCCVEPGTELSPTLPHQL

PKCδ (h) = PKCδ (h) (human (h), UniProt Q05655 1-676)
PKCδ (h), sequence (Q05655 whole entry, stated change not applied): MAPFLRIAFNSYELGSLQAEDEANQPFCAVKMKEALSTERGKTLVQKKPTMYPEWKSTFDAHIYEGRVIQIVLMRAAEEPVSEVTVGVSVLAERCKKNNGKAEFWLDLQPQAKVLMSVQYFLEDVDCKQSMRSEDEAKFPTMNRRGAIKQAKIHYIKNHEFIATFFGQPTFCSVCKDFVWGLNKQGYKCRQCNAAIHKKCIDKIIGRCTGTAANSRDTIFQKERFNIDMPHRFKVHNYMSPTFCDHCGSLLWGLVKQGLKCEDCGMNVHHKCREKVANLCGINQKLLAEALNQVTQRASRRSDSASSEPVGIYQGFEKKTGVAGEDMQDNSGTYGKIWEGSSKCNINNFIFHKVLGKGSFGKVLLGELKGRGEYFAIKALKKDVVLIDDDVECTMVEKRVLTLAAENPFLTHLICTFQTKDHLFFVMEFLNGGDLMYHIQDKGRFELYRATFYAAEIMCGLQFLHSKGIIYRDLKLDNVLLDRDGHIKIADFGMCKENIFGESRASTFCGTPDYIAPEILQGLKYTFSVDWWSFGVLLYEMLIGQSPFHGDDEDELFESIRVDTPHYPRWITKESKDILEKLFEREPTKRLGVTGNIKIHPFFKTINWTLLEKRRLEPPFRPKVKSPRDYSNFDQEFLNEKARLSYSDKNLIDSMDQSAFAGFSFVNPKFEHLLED

Lck (h) = Lck (h) (human (h), UniProt P06239 1-509)
Lck (h), sequence (P06239 whole entry): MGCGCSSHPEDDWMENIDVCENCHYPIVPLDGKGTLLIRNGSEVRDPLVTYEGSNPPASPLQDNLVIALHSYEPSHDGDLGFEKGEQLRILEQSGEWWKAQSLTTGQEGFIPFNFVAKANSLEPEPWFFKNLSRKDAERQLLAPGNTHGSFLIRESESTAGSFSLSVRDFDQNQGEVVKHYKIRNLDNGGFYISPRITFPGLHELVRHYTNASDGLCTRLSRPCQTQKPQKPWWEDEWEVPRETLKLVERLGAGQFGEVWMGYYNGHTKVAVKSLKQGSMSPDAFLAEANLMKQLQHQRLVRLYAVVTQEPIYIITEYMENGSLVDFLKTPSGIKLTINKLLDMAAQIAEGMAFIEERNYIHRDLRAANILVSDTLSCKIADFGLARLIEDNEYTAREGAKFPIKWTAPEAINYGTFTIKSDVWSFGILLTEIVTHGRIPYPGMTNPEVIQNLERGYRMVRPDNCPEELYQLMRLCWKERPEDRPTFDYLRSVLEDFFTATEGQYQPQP

SAPK2 a (h) = SAPK2 a (h) (human (h), UniProt Q16539 1-360)
SAPK2 a (h), sequence (Q16539 whole entry): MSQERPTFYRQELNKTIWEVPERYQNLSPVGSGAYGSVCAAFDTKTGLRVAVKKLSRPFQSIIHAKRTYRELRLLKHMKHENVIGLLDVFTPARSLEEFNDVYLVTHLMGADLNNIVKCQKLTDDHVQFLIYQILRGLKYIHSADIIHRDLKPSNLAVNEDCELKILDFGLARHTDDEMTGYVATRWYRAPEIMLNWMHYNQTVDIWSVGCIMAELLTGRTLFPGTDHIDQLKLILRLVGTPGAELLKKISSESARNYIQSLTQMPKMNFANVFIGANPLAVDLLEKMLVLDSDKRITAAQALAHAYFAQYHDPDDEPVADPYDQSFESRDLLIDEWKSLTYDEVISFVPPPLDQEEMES

KDR (tl) = KDR (tl) (UniProt P35968 790-1356, limits assumed)
KDR (tl), sequence (P35968 790-1356 limits assumed): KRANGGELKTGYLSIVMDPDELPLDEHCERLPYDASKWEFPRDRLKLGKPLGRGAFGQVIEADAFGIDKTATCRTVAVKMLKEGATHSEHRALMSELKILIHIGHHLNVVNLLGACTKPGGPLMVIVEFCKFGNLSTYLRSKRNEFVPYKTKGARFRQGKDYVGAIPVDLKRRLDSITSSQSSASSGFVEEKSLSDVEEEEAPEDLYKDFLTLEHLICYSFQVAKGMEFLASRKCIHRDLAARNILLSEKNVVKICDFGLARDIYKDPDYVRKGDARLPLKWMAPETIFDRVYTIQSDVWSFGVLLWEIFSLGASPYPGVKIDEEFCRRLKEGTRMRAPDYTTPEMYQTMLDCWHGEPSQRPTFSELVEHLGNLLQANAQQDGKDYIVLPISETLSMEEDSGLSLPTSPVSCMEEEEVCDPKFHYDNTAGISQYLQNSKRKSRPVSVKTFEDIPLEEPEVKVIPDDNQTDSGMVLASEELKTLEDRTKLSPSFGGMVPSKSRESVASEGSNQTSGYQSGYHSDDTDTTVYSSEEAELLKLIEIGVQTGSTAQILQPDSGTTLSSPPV

FGFR1 (h) = FGFR1 (h) (human (h), UniProt P11362 456-765, limits assumed)
FGFR1 (h), sequence (P11362 456-765 limits assumed): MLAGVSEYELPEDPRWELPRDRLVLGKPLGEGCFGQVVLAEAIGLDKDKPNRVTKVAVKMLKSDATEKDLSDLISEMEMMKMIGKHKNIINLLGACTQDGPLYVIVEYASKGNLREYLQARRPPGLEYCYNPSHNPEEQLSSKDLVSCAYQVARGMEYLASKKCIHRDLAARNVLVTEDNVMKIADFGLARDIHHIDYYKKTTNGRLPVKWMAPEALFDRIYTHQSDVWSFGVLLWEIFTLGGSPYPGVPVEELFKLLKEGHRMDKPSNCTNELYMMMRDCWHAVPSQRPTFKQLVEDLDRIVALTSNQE

Question: FAKLAARLYRKALARQLGVAA was tested. Which “Profile-1 @ = 100 µm (kinase profiler assay)” value (shortened to “Profile-1 @ = 100 µm”) (PhKγ2 (h)) did it give?
Answer: 20

Question: And the “Profile-1 @ = 100 µm” value (MSK2 (h))?
Answer: 24

Question: What about the “Profile-1 @ = 100 µm” value (MEKI (h)) of the same binder?
Answer: 68

Question: What about the “Profile-1 @ = 100 µm” value (Rsk2 (h)) of the same binder?
Answer: -1

Question: What about the “Profile-1 @ = 100 µm” value (EGFR (h)) of the same binder?
Answer: 18

Question: What about the “Profile-1 @ = 100 µm” value (MKK4 (m)) of the same binder?
Answer: 90

Question: And the “Profile-1 @ = 100 µm” value (PRAK)?
Answer: 131

Question: What about the “Profile-1 @ = 100 µm” value (Ret (h)) of the same binder?
Answer: 89

Question: And the “Profile-1 @ = 100 µm” value (JNK1α1 (h))?
Answer: 91

Question: What about the “Profile-1 @ = 100 µm” value (MKK6 (h)) of the same binder?
Answer: 42

Question: What about the “Profile-1 @ = 100 µm” value (CaMKI (h)) of the same binder?
Answer: 0

Question: What about the “Profile-1 @ = 100 µm” value (PKCδ (h)) of the same binder?
Answer: 40

Question: What about the “Profile-1 @ = 100 µm” value (Lck (h)) of the same binder?
Answer: 493

Question: What about the “Profile-1 @ = 100 µm” value (SAPK2 a (h)) of the same binder?
Answer: 30

Question: And the “Profile-1 @ = 100 µm” value (KDR (tl))?
Answer: 78

Question: What about the “Profile-1 @ = 100 µm” value (FGFR1 (h)) of the same binder?
Answer: 22
